Source: US7291458B2, “Leptin-mediated gene-induction” (Vlaams Interuniversitair Instituut Voor Biotechnologie VZW, priority 1998, dated 2007)

Key:
[1] = test system: PC12-LR8 cells; test: Northern blot analysis of gene induction in non-differentiated PC12-LR8 cells; type: cell-based, rat
Method: PC12-LR8 cells were treated with leptin (L), forskolin (F), or a combination of both (F/L) for the indicated length of time. Hybridization with the mouse b-actin probe was used as a control. NI stands for non-induced control cells. Sizes of transcripts are shown on the right. Exposure times to Biomax MS films were 5.5 days for LIP-I and LIP-II, and 1 day for the corresponding b-actin blot, all at −80° C.
FIG. 6A. Induction patterns of Reg I, HIP-I and peripherin after a 12 hours stimulation with forskolin (F), leptin (L), forskolin plus leptin (F/L), hyper-IL-6 (H) or forskolin plus hyper-IL-6 (F/H). Untreated cells were analyzed as a control (NI). Exposure times to BioMax MS films for Reg I, HIP-I and b-actin were 4 days, 5 days and 3 hours, respectively; and in a separate experiment for peripherin and b-actin, 16 hours and 2 days.
FIG. 6B Induction patterns of PAP I, PAP III, MT-II, Fnk, MRF-1, SOCS-3 and STAT-3 after stimulation with leptin (L) or hyper-IL-6 (H), compared to non-treated control cells (NI). In all cases stimulation was for 12 hours, with the exception of PAP III where stimulation was for 24 hours. b-actin hybridization patterns are shown as control. Exposure times to BioMax MS films at −80° C. were 16 hours for PAP I and 1 hour for b-actin; 4 days for PAP III and 1 hour for b-actin; 3 days for MT-II and Fnk, and2 days for b-actin; 3 days for MRF-1, 2.5 days for SOCS-3 and2 days for b-actin; and 16 hours for STAT-3 and 3 hours for b-actin.
FIG. 8A. Northern blot analysis of the immediate early response genes. PC12-LR8 cells were left untreated (NI: non induced), or were treated with forskolin (F), leptin (L) or a combination of both (F/L) for the indicated time points. Exposure times to BioMax MS films for the different transcripts were Fnk: 6 days, MT-II: 5 days, MRF-1: 6 days, SOCS-3: 14 hours, STAT-3: 14 hours, b-actin: 5 hours.
FIG. 8B. Immediate early response gene-set: early kinetics. PC12-LR8 cells were treated with leptin alone (L) or with a combination of leptin and forskolin (F/L) for the indicated length of time. Exposure time to BioMax MS films were: Fnk: 3 days, MT-II: 3 days, MRF-1: 3 days, SOCS-3: 2.5 days, STAT-3: 2.5 days, b-actin: 1 hour.
FIG. 8C. Northern blot analysis of the late target genes. PC12-LR8 cells were left untreated (NI), or were treated with forskolin (F), leptin (L) or a combination of both (F/L) for the indicated length of time. Exposure times to BioMax MS films were: Ann VIII: 6 days, PAP I: 14 hours, Squalene Epoxidase: 5 days, UGT: 5 days, b-actin: 14 hours.
PC12 cells were cultured in RPMI 1640 medium with glutamax-I (GibcoBRL) containing 10% heat-inactivated foetal calf serum (iFCS) and gentamycin (50 μg/ml). The cells were treated with medium alone or supplemented with 100 ng/ml of mouse leptin (R&D Systems), with forskolin (Sigma) at a concentration of 10 μM or with a combination both, unless otherwise indicated.
Total RNA was prepared from PC12 cells using RNeasy™ method (Qiagen). RNA (10 μg) was separated on a 1.5% agarose,6% formaldehyde gel, transferred to a nylon membrane (Zeta-Probe GT Genomic, Bio-Rad), and cross-linked using UV radiation. The filters were hybridized for one hour at 68° C. in ExpressHyb™ solution (Clontech) with [^32P]dCTP-labeled DNA-probes and washed 3 times with 2×SSC, 0.05% SDS at room temperature and twice in 0.1×SSC, 0.1% SDS at 50° C. Autoradiographs were obtained by exposing the blots to BioMax MS film (Kodak) with intensifying screens at −70° C. All Northern blots were normalized by hybridization using a b-actin probe.

[2] = test system: differentiated PC12-LR8 cells; test: RDA and Northern blot of leptin-responsive genes in differentiated PC12-LR8 cells; type: cell-based, rat; settings: leptin 24 hours, continued presence of b-NGF and forskolin
Method: Adherent PC12-LR8 cells were treated with b-NGF and forskolin for 5 days to induce neuronal differentiation. Differentiated cells were treated with leptin (nF/L) for 24 hours, or were left untreated (nF), in the continued presence of b-NGF and forskolin. Non-differentiated cells were treated for 24 hours with leptin and forskolin (F/L) or with forskolin alone (F). Hybridization was performed with probes as indicated. Mouse b-actin probe was used as a control. Exposure to BioMax film at −80° C. was 3 days for Mx2, 3 hours for peripherin, 4 days for PAP III and 16 hours for b-actin.
The search for leptin-regulated genes was also extended to differentiated PC12 cells (FIG. 5). Adherent PC12-LR8 cells were treated with b-NGF and forskolin for 5 days, which led to a growth arrest, the formation of branched neuritic processes and the accumulation of small vesicles. Again, a RDA experiment was performed using mRNAs from differentiated cells treated with leptin for 24 hours, or from untreated cells, both in the continued presence of b-NGF and forskolin.
For neuronal differentiation, resuspended PC12 were seeded on rat tail collagen (Collaborative Biomedical Products) coated plates at 2-3 10^6 cells/25 cm^2 flask in RMPI 1640 medium with glutamax-I containing 10% heat-inactivated horse serum, 5% iFCS and gentamycin. […]

B1: leptin: mouse leptin (R&D Systems), ob gene product, used on PC12 cells at 100 ng/ml (protein)
chain: VPIQKVQDDTKTLIKTIVTRINDISHTQSVSAKQRVTGLDFIPGLHPILSLSKMDQTLAVYQQVLTSLPSQNVLQIANDLENLRDLLHLLAFSKSCSLPQTSGLQKPESLDGVLEASLYSTEVVALSRLQGSLQDILQQLDVSPEC
For B1, the “kinetics of synthesis of SOCS-3 mRNA” value ([1]; 2 hours post stimulation) was “rapid decline”, the “time of optimal mRNA levels post induction” value ([1]; Annexin VIII, Squalene epoxidase) was “over 96 hours” and the “time of induction of immediate early response genes” value ([1]; Fnk, MT-II, MRF-1, STAT-3, SOCS-3, leptin treatment) was ≤ 4 h. For the same molecule, the “time of optimal mRNA levels post induction” value ([1]; PAP I, UGT) was 22 h, the “time of induction of late activated target genes after stimulus” value ([1]; PAP I, UGT, Ann VIII, squalene epoxidase, leptin treatment) was ≥ 6 h and the “induction of HIP-I and Reg transcripts” value ([1]; RDA hyper-IL-6 versus leptin) was “not induced”. For the same molecule, the “time of optimal stimulation post induction” value ([1]; SOCS-3) was 30 min, the “time of optimal stimulation post induction” value ([1]; STAT-3) was 480 min and the “induction of PAP I and PAP III transcripts” value ([1]; without forskolin) was “requires forskolin co-stimulation”. The “regulation of Mx2, Peripherin and PAP III transcripts” value [2] was “up-regulated”.
